US6239106A, “Family of protease inhibitors, and other biologic active substances” (Clodica, S.A., priority 1994, dated 2001)
Like-named read-outs stand apart in the source and are kept apart here. Non-standard residues stand in square brackets, D forms with d. Residues, ends and D or L forms follow the SMILES beside them. No end group written: not given here. Abu = CC[C@H](N)C(=O)O

Columns and labels:
[1] = target: T1, elastase (Boehringer, 1027891) (Sus scrofa, UniProt P00772); test: Elastase inhibition assay (chromogenic substrate SAAAP, 405 nm); format: biochemical; settings: for inhibition of elastase activity: SAAAP substrate, 25° C., 30 minutes; for specific (elastase) activity: IU = quantity reducing hydrolysis of SAAAP with 1 μmol/min at pH 8.3 and 25° C.
T1 construct: purchased Boehringer 1027891
T1 sequence (P00772 27-266): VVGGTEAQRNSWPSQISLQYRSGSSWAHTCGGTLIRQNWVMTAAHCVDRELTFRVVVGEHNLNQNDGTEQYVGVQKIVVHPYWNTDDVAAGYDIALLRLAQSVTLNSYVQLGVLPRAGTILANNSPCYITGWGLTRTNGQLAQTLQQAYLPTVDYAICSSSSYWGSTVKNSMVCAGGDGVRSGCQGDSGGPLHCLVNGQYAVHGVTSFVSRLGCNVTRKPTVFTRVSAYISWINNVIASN
Experimental: 2. Prior lyophilized base material underwent solubility tests after resuspension of the base material in 1) 0.1M Acetic Acid, 2) 50% Acetic Acid and 3) 0.1M Ammoniumbicarbonate and after centrifugation of the various suspensions, supernatants and pellets (after resuspension). Thereafter these were tested on the presence of protein by analytical sequence analysis (Edman degradation with automated sequenator Applied Biosystems, Model 477A) (Edman, 1956; Ilse & Edman, 1963), by applying protocolls, reagentia, chemicals and materials from Applied Biosystems (Warrington, UK and Foster City, Calif., USA) (Hewick, et al, 1981).It was investigated if biologic activity included anti-elastase as the described "auto-antibiotic effect" of A. hydrophila. Therefore, tests on inhibition of elastase activity were executed with dried samples of 20 μl of supernatant and resuspension of pellet of the base material on elastase (Boehringer) and SAAAP (Fluka) as chromogenic substrate, and 0.1 M Tris/HCl pH 8.2 as assay buffer. Based on the results obtained with the different solutions, and the inhibition of elastase, it was decided to use 0.1 M Hac as solution for the lyophilized base material and thereafter as eluens for gel filtration.
The principle of the assay resides in inhibition of elastase (Boehringer, 1027891) activity on the chromogenic substrate SAAAP (Fluka, nr. 85975) as measured at 405 nm spectophotometrically by monitoring release of the p-nitro-aniline group during substrate digestion.
Assay buffer: 0.1M Tris/HCl pH 8.2, 1M NaCl.
Elastase: 40 μg/ml in H2 O.
Substrate: 1.0 mM SAAAP in H2 O.
Glacial Acetic Acid 50%: diluted in H2 O.
Reaction in tubes (Eppendorf), containing 100 μl assay buffer, 50 μl sample elastase inhibitor, 50 μl elastase solution was started by addition of SAAAP (25 μl, 1 mM) and incubated at 25° C. for 30 minutes. Thereafter the reaction was stopped by addition of 25 μl 50% Glacial Acetic Acid. The Absorbance of released p-nitroaniline was read at 405 nm.
International units (IU) are defined as that quantity which reduces the enzymatic hydrolysis of SAAAP with 1 μmol/min at pH 8.3 and 25° C.

Trypsin [2] = test: Trypsin inhibition assay (BAPNA); format: biochemical; settings: for trypsin inhibition: BAPNA, 37° C.
Experimental: An assay was developed for determination of the activity of this Trypsin inhibitor. In analogy with the elastase inhibition assay the preparation of the solution was as follows:
Trypsin, Type II-S soybean trypsin inhibitor (Sigma T 9128) and BAPNA (Sigma B 3279). This was further optimized to: trypsin solution: 120 μg/ml; BAPNA solution 10 mM; Trypsin inhibitor 100 μg/ml and incubation at 37° C. All other details were equal with the elastase inhibition assay.
(§1) Elastase inhibitory activity of Fahsin was measured by inhibition of the release of the p-nitroanilide group from the synthetic substrate N-succinyl-(Ala) 3-p-nitroanilide (SAAAP) (Calbiochem), catalyzed by pancreatic elastase and human neutrophil elastase respectively. Chymotrypsin inhibition activity of Fahsin was measured by the use of the synthetic substrate S-2586 (Kabi Vitrum). […] of Fahsin was measured by the use of the synthetic substrate S-2238 (Kabi Vitrum). pepsin activity of Fahsin was measured by the use of a haemoglobin substrate. Trypsin inhibition activity was determined using the BAPNA assay. Plasmin inhibition activity of Fahsin was related with the Trypsin inhibition activity and measured by the use of the chromogenic substrate D-Val-Leusyl-Lys-pNA (Othodiagnostics).

[3] = Experimental: Stability of the molecule was tested
a) by boiling it in water at 100° C. for 30 minutes.
b) by immersion in 50% acetic acid at room temperature during one night, and
c) by immersion in 0.1M HCl in the same conditions.
The samples were consequently assayed with the elastase inhibition assay, as were blancs without inhibitor.

[4] = target: elastase (Boehringer, 1027891)
[5] = target: elastase (Boehringer, 1027891); remark: listed apart in the source
plasmin = plasmin (Homo sapiens, UniProt P00747); test: Plasmin inhibition (chromogenic substrate D-Val-Leusyl-Lys-pNA); format: biochemical
Chain of plasmin (P00747 581-810 limits assumed, species assumed): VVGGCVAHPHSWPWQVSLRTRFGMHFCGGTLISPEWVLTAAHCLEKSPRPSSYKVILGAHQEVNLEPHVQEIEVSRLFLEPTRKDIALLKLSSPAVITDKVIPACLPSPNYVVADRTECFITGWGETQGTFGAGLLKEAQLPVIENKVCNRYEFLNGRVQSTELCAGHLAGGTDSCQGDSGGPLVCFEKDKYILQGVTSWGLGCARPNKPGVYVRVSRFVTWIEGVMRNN
Chain of plasmin (P00747 97-580 partner limits assumed, species assumed): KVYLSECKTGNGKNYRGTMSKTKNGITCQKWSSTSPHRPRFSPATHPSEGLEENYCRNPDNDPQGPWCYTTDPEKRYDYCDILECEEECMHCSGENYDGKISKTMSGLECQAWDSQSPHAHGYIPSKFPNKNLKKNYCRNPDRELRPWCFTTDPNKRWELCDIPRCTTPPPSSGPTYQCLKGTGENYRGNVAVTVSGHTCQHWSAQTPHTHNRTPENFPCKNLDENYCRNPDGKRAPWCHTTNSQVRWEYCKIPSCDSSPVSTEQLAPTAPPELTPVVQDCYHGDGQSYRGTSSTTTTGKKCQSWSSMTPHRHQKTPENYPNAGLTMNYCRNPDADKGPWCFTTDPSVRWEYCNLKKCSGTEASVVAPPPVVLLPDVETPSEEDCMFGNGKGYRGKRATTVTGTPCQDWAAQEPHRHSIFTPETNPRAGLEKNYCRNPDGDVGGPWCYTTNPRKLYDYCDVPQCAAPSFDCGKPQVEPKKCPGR
Experimental: as §1

trypsin [6] = target: trypsin

In the case of `CC[C@H](NC(=O)[C@H](CCCNC(=N)N)NC(=O)[C@@H](NC(=O)[C@@H]1CCCN1C(=O)[C@@H](NC(C)=O)[C@@H](C)O)[C@@H](C)CC)C(=O)N[C@@H](CC(C)C)C(=O)N[C@H](C(=O)N[C@@H](Cc1ccccc1)C(=O)N[C@@H](CC)C(=O)N1CCC[C@H]1C(=O)N[C@@H](CC(N)=O)C(=O)NCC(=O)N[C@@H](Cc1ccccc1)C(=O)N[C@@H](C)C(=O)N[C@H](C(=O)N[C@@H](CC(=O)O)C(N)=O)C(C)C)[C@@H](C)CC` [Synthetic peptide I, N-Acetyl-TPIRAbuLIFAbuPNGFAVD-amide] (Ac-TPIR[Abu]LIF[Abu]PNGFAVD-NH2), the “inhibition of elastase activity” value [1] is reported as “dose-dependent inhibition of elastase activity” and the “specific effectivity (elastase inhibition), factor less than the native molecule” value ([1]; relative to native molecule) is reported as ~5,000.

With `CC[C@H](NC(=O)[C@H](CCCNC(=N)N)NC(=O)[C@@H](NC(=O)[C@@H]1CCCN1C(=O)[C@@H](NC(C)=O)[C@@H](C)O)[C@@H](C)CC)C(=O)N[C@@H](CCCNC(=N)N)C(=O)N[C@H](C(=O)N[C@@H](Cc1ccc(O)cc1)C(=O)N[C@@H](CC)C(=O)N1CCC[C@H]1C(=O)N[C@@H](CCCCN)C(=O)NCC(=O)N[C@@H](Cc1ccccc1)C(=O)N[C@@H](CCC(=O)O)C(=O)N[C@H](C(=O)N[C@@H](CC(=O)O)C(N)=O)C(C)C)[C@@H](C)CC` [Synthetic peptide II, N-Acetyl-TPIRAbuRIYAbuPKGFEVD-amide] (Ac-TPIR[Abu]RIY[Abu]PKGFEVD-NH2) the trypsin inhibition (Trypsin [2]) was “dose-dependent inhibition of trypsin activity” and the “specific effectivity (trypsin inhibition), factor less than the native molecule” value (Trypsin [2]; relative to native molecule) was ~1,500.

With “DDNCGGKVCSKGQLCHDGHCECTPIRCLIFCPNGFAVDENGCELPCSCKHQ (cysteine pairing not given here) [peak 8]” the “stability: elastase inhibiting activity after treatment” value ([3]; 0.1M HCl at room temperature during one night) was “no significant decrease of inhibiting activity”, the “stability: elastase inhibiting activity after treatment” value ([3]; 50% acetic acid at room temperature during one night) was “no significant decrease of inhibiting activity” and the “stability: elastase inhibiting activity after treatment” value ([3]; boiling in water at 100° C. for 30 minutes) was “no significant decrease of inhibiting activity”. The “specific (elastase) activity” value [1] was 1.7 IU/mg and the “inhibition of elastase activity” value [1] was “showed inhibition of elastase”.

In the case of “peak 7: single molecule isoform from Limnatis nilotica, 5494.4 D, partial sequence in b92, elastase inhibitor (DDDCGGQVCSKGQLCHDGHCECTPIRCLIYCPNFVDE)”, the “specific (elastase) activity” value [1] is reported as 1.2 IU/mg and the “inhibition of elastase activity” value [1] is reported as “showed inhibition of elastase”.

B1: FAHSIN E 1 (peptide)
chain: DDDCGGQVCSKGQLCHDGHCECTPIRCLIYCPNFVDE
Molecule B1 has a specific (elastase) activity, inhibition of SAAAP hydrolysis [4] of 1.2 IU/mg.

B2: Synthetic linear peptide N-Acetyl-TPIRAbuLIFAbuPNGFAVD-amide (I) (peptide)
peptide: Ac-TPIR[Abu]LIF[Abu]PNGFAVD-NH2
SMILES: CC[C@H](NC(=O)[C@H](CCCNC(=N)N)NC(=O)[C@@H](NC(=O)[C@@H]1CCCN1C(=O)[C@@H](NC(C)=O)[C@@H](C)O)[C@@H](C)CC)C(=O)N[C@@H](CC(C)C)C(=O)N[C@H](C(=O)N[C@@H](Cc1ccccc1)C(=O)N[C@@H](CC)C(=O)N1CCC[C@H]1C(=O)N[C@@H](CC(N)=O)C(=O)NCC(=O)N[C@@H](Cc1ccccc1)C(=O)N[C@@H](C)C(=O)N[C@H](C(=O)N[C@@H](CC(=O)O)C(N)=O)C(C)C)[C@@H](C)CC
For B2, the specific effectivity against the native molecule [5] was 5000 factor less.

B3: peak 9: isoform found to be a mixture of two molecules, 5385.5 and 5454.1 D, partial sequence in b93 (protein)
chain 1: DDDCGGKVCSKGQLCVDGHCECTPIRCLIYCPNGFAVENGC
chain 2: DGNCGGQVCSKGQLCVDGQCKCTPIRCLIYCPNGFAVENGC
With B3 the “specific (elastase) activity” value [1] was 0.95 IU/mg and the “inhibition of elastase activity” value [1] was “showed inhibition of elastase”.

B4: peak 5: 1:1 mixture of 2 peptides, 5377.2 and 5435.5 Dalton, SEQ ID NO:5 or 6, trypsin inhibitor (protein)
chain 1: DDDCGGQVCSKGQLCVDGQCKCTPIRCRIYCPKGFEVDENGCELPCTCKQ
chain 2: DGNCGGQVCSKGQLCVDGQCKCTPIRCRIYCPKGFEVDENGCELPCTCKQ
In the case of B4, the trypsin inhibition (Trypsin [2]; listed as Fahsin T 1-2) is reported as “strongly active”, the trypsin inhibition (Trypsin [2]; listed as Fraction 5) is reported as “strong trypsin inhibition” and the “trypsin inhibitory activity compared with the fractions corresponding to peaks 7, 8 and/or 9” value (Trypsin [2]; ratio to peaks 7, 8 and/or 9) is reported as “at least twenty times higher”. For the same molecule, the “specific (elastase) activity” value [1] was “less than 0,06 IU/mg”, the “inhibition of elastase activity” value [1] was “did not show anti-elastase activity” and the inhibition of plasmin (plasmin) was “strongly active”.

B5: Synthetic linear peptide N-Acetyl-TPIRAbuRIYAbuPKGFEVD-amide (II) (peptide)
peptide: Ac-TPIR[Abu]RIY[Abu]PKGFEVD-NH2
SMILES: CC[C@H](NC(=O)[C@H](CCCNC(=N)N)NC(=O)[C@@H](NC(=O)[C@@H]1CCCN1C(=O)[C@@H](NC(C)=O)[C@@H](C)O)[C@@H](C)CC)C(=O)N[C@@H](CCCNC(=N)N)C(=O)N[C@H](C(=O)N[C@@H](Cc1ccc(O)cc1)C(=O)N[C@@H](CC)C(=O)N1CCC[C@H]1C(=O)N[C@@H](CCCCN)C(=O)NCC(=O)N[C@@H](Cc1ccccc1)C(=O)N[C@@H](CCC(=O)O)C(=O)N[C@H](C(=O)N[C@@H](CC(=O)O)C(N)=O)C(C)C)[C@@H](C)CC
Molecule B5 has a specific effectivity against the native molecule (trypsin [6]) of 1500 factor less.
